Results as given in the DeepSol protein solubility set.

test: soluble on expression in E. coli; label from the status in PepcDB or PDB records

Sequence | soluble on expression in E. coli
MSASVKESLQLQLLEMEMLFSMFPNQGEVKLEDVNALTNIKRYLEGTREALPPKIEFVITLQIEEPKVKIDLQVTMPHSYPYVALQLFGRSSELDRHQQLLLNKGLTSYIGTFDPGELCVCAAIQWLQDNSASYFLNRKLVYEPSTQAKPVKNTFLRMWIYSHHIYQQDLRKKILDVGKRLDVTGFCMTGKPGIICVEGFKEHCEEFWHTIRYPNWKHISCKHAESVETEGNGEDLRLFHSFEELLLEAHGDYGLRNDYHMNLGQFLEFLKKHKSEHVFQILFGIESKSSDSLEHHHHHH | soluble
MTATETVRVRFCPSPTGTPHVGLVRTALFNWAYARHTGGTFVFRIEDTDAQRDSEESYLALLDALRWLGLDWDEGPEVGGPYGPYRQSQRAEIYRDVLARLLAAGEAYHAFSTPEEVEARHVAAGRNPKLGYDNFDRHLTDAQRAAYLAEGRQPVVRLRMPDDDLAWNDLVRGPVTFAAGSVPDFALTRASGDPLYTLVNPCDDALMKITHVLRGEDLLPSTPRQLALHQALIRIGVAERIPKFAHLPTVLGEGTKKLSKRDPQSNLFAHRDRGFIPEGLLNYLALLGWSIADDHDLFGLDEMVAAFDVADVNSSPARFDQKKADALNAEHIRMLDVGDFTVRLRDHLDTHGHHIALDEAAFAAAAELVQTRIVVLGDAWELLKFFNDDQYVIDPKAAAKELGPDGAAVLDAALAALTSVTDWTAPLIEAALKDALIEGLALKPRKAFSPIRVAATGTTVSPPLFESLELLGRDRSMQRLRAARQLVGHALEHHHHHH | soluble
MEQPYVYAYPQGSGPSGAPTPQAGGVVVDPKYCAPYPIDMAIVRKMMSLTDGNFVITDVNGNLLFKVKEPVFGLHDKRVLLDGSGTPVVTLREKMVSMHDRWQVFRGGSTDQRDLLYTVKRSSMLQLKTKLDVFLGHNKDEKRCDFRVKGSWLERSCVVYAGESDAIVAQMHRKHTVQSVFLGKDNFSVTVYPNVDYAFIASLVVILDDVNREDRAA | soluble
MSLSDAAISCSWKPFFRELATRLLDYEDRQPELLAALRDASISINHDEGEPLREVDPFTFFSLVLKHTSDATALPLFARVGAALGVQAPSPTDLIGVPWSNPMNAWFFAYRSQRQPGDVPLLWRLARQAVAGILDAQTFEDALKIRKVALPKLTQGLFWLNPERFLALNAVNVPYLQARGLQAAGQVQTLAEYETVLEAAHKLNPDFAALSHRAWLNSQTAALEGNHFPFARYQADAQEFAGDKVKGNLVLDRRYAPLLLDLMAGEWETLKPSRSPYSGREQLAVKVALGGGVKTDGGAFARALLFADDSGFEYVPFSAGLTLEAGLPDGRGDGPRQALQEPARQHTLLTALNAPLPAGLEATLTLNTDFGALFLLPLGPGREAEAAQQLQQYMSGVGRSRRLRVGLSLLPEHLESDKFPELLDAALTYLDALVDLLDGLMRPSEETSTEEIGVPGTRPVAPTPAAFVPVPGVPLNQILYGPPGTGKTYRVVDEALSVLDPAFLSAHPGSEGRAARKARYDELAAQGQISFVTFHQSFGYEDFIEGIKPVMSGGALSYVLQDGVFLEAVRSAGGALAPAAPEAGPSTETQPLVRPDAQVWRMYIDGTAPVSRIRDLSLGRGELRMGSYGKPPRDLTQAGVEDLSGRQLLFKESVRVGDLMLLATAADRIGAVGVVTGDYRFDPHSDPTFATDYAHTRSVKWLAQDLNVGATETLGKSFAPPTLQRVADVTPAQVLQALGVSTAGGETAHAPTPRPHVLIIDEINRGNISKIFGELITLLESGKRTGAPEALTVTLPLSRRPLSVPQSLYVIGTMNTADRSLTLLDAALRRRFVFRPVWPQPEVLPVLDLGGTALDLRKFLHVINDRIERLLSREQVIGHAYLLGLPATLGGVSSALRERILPLLEEYFFEDWSKIREVLGDESKAEALQFIHRSGSGPELRYRLNPEAFENIEAFTGVYAGVSDQDFPFDEGHHHHHH | soluble
MGQIIVSMYLSLDGVMEEPAWTAPYFNEEVAKFQSDLLFESEALLLGRVTYQGFAAAWPSMTDEEGFADKMNSIPKFVASTTLEKTEWNANLIKGNIVEEISKLKEQPGQNLLIYGSGELIQTLMQHDLIDEYHFMVNPVIVGSGKHLFKTGNDTKALKLIETRTTSSGVVILSYQPEKKE | not soluble
KVISPTYQASTQVLVHESDGEENSNLSDIQRNLQYSSTFQSIMKSTALMEEVKAELHLSESASSLKGKVVTSSENESEIINVAVQDHDPAKAAEIANTLVNKFEKEVDERMNVQGVHILSEAKASESPMIKPARLRNM | not soluble
MFLRIDRLQIELPMPKEQDPNAAAAVQALLGGRFGEMSTLMNYMYQSFNFRGKKALKPYYDLIANIATEELGHIELVAATINSLLAKNPGKDLEEGVDPESAPLGFAKDVRNAAHFIAGGANSLVMGAMGEHWNGEYVFTSGNLILDLLHNFFLEVAARTHKLRVYEMTDNPVAREMIGYLLVRGGVHAAAYGKALESLTGVEMTKMLPIPKIDNSKIPEAKKYMDLGFHRNLYRFSPEDYRDLGLIWKGASPEDGTEVVVVDGPPTGGPVFDAGHDAAEFAPEFHPGELYEIAKKLYEKAK | soluble
MGSDKIHHHHHHMMNTTETAPVLNPALEDEYSKALDEIKQFGEAQTHTVHDLGSATWAMRKLGELNKEDAEARKVVQANIDQLNEWLQHSLEARQSRRNYLEHEVLAYVANNRKHDPKYKLDTPYGKVSFTVKRKATPAISDETQVLNFIKSNWNESEQTQVIKRTEKVLVSELKKQVTVAGDKVIDEDGQPIPGMHVDPAGTETPHIKPIQMTEALS | not soluble
MLVLGDAHATTPGRRRALFAAYRAANESVAVQAGDLMYYDLPVQTYFIGGNNEDFDAIDALRNGRVESDDVANATLLNSTAATVDGRRVAGLTGNYAPTQFDKPRAVLRGDRRRHFVRSDVEAVMDLDDIDIFVAHEAPNGLPVEEDYDVGCQHIDDILDALQPSLCLVGHHHQHAECDYGDTHVVGLEPAWESYYVVDPDTLAVTRHDTPPALEHHHHHH | not soluble
SIERLGYLGFAVKDVPAWDHFLTKSVGLMAAGSAGDAALYRADQRAWRIAVQPGELDDLAYAGLEVDDAAALERMADKLRQAGVAFTRGDEALMQQRKVMGLLCLQDPFGLPLEIYYGPAEIFHEPFLPSAPVSGFVTGDQGIGAFVRCVPDTAKAMAFYTEVLGFVLSDIIDIQMGPETSVPAHFLHCNGRHHTIALAAFPIPKRIHHFMLQANTIDDVGYAFDRLDAAGRITSLLGRHTNDQTLSFYADTPSPMIEVEFGWGPRTVDSSWTVARHSRTAMWGHKSVRGQR | soluble
MGSDKIHHHHHHMKKAAIITIGSELLEGLILNKNAQFLCQELKNLGYRVVKVSTVGDDLISISEEVKTLLLKVDLLILTGGLGPTQDDLTRDAVAKVLNRSLKLNEELLSKIKEKIKKYHSEIPQNIERQALVIDGAEVLDNPVGSAPGQLLTVDGKIVILLPGPPRELIPMFNALKDRLRTPDALYQVVLKYYSIPEAVLEDLLKDILYSQNIVEVATMADHVEGVRLRLTTHMKNKEYLDEMVKKILDKTGEHLYGVNDEKMEEVVVRLLKDRKKTLAVAESCTGGMLSSLVVNVPGASEVFIGGVVAYSNDLKKHILGVREDTLKKHGAVSEECVQEMTEGLKKLTGADICVSISGIAGPSGGTPEKPVGTVFIDIFEHEHITMRYNFTGDRNMIRTRSAMMALENLRKYLKGRERV | not soluble
MLNRYYRFAVEKDDPSEAPESGDKPDSQPQKKS | not soluble
SDDKPNPEALSDSSERLFSFGVIADVQFADLEDGFNFQGTRRRYYRHSLLHLQGAIEDWNNESSMPCCVLQLGDIIDGYNAQYNASKKSLELVMDMFKRLKVPVHHTWGNHEFYNFSREYLTHSKLNTKFLEDQIVHHPETMPSEDYYAYHFVPFPKFRFILLDAYDLSVLGVDQSSPKYEQCMKILREHNPNTELNSPQGELFL | soluble
SMGLPPGWDEYKTHNGKTYYYNHNTKTSTWTDPRMSS | soluble
MKPMSDYDIPTTENLYFQGAMVTTPGKPNDPDNPNNNYIKPTKVNKNKEGLNIDGKEVLAGSTNYYELTWDLDQYKGDKSSKEAIQNGFYYVDDYPEEALDVRPDLVKVADEKGNQVSGVSVQQYDSLEAAPKKVQDLLKKANITVKGAFQLFSADNPEEFYKQYVATGTSLVITDPMTVKSEFGKTGGKYENKAYQIDFGNGYATEVVVNNVPKITPKKDVTVSLDPTSENLDGQTVQLYQTFNYRLIGGLIPQNHSEELEDYSFVDDYDQAGDQYTGNYKTFSSLNLTMKDGSVIKAGTDLTSQTTAETDATNGIVTVRFKEDFLQKISLDSPFQAETYLQMRRIAIGTFENTYVNTVNKVAYASNTVRTTT | soluble
MQSTATYGSTISSGTSRTLKITEIGGSNLTSGMSPFGGHAASAIRESRTREKKEMSELNDRLASYIEKVRFLEAQNRKMEKDLNLLRGKWGHDSTSVKVMYETELRSAKDLIADSDKERAQLEDQIKKLVEELNNYRNKLHEAERGADVTRKELDNVLGRLGALEAEIELLKRRISLMEESIGHLKRENHRMIDSLHHARIFQAVEQETLNRIDYQNQVQTLLEECDFIRRIHDSEIHDLLAMASRDTTVENREYFKNELSSAIREIRSEYDHVSNTTRTDIESWYKLKVQEIHTQNSRNCLEQNYAREEVKRLRTTLGDMRGKMADLEGRNLLLEKQIEDLNYQMEEDMRSYEQSLNDKDTSINKLRDESKILMVELQMLIDTKQTLDAEIVIYRKMLDGEENRAGLRQLVEQVVKTTSIHQTKEIESLRVLKGETTSHSSYSRSAKGNIAIQEAEPSGKYIVLENISRRDENIGDWKLRRKIAGKREIVFTFPREFTLRAQKSVKIFARGQGVHSPPDSLVYDLEDSFGTGNDVVTTLYNKEGEDRASHSQRASHT | not soluble
MDKMFKRTLLGAAVAMASTGAFAASETGAIGVLSDFNVQAYGVAAISAFYQEDSNGYDYENESRIGFRASKDMFDNVNVFMQIESGYVGEDGKGSTLGARDTFLGLQGDWGKVRFGRMLTPLYEIVDWPYSNPGLGRVFDWGGDVAGHYDRKGDIARYDSPAFGGLTFNISAGRGDVGTKSSNHFGAAAHYNAADIVTFHVGYENNSNFKYDYKTKDTAGKDVDNTFLTDATAYIVGFELPLPAGFGLAGAYKYTEGASKTVKGQEGEQGQYSLIGQYWNGPWGFKVGYAANLESEVNGVEQKDDDEVLSAQLMYVKNGFVPYIRVGQHDAYDSADKKGFVRVGLEYGF | not soluble
MHIIDSHCHLNFEGLKERLPEVLSNMEANGVGQALAISVSRESFSEVFAVAEAHEHIYCTIGVHPDSREAEEFSIAEMVEAAAHPKVVGIGETGLDYYWCKGDLSWQHKRFADHIEAANQTGLPVIVHTRDAAADTLAILKECKTNSGVIHCFSEDTAFARAAMDLGLYISFSGIVTFKNAPLVQEAAKYVPDDRILVETDAPFLAPVPKRGRQNEPAFVRHTAEHIAKLRNQTLEQVAAYTTENFYRLFKKVPDMRAVLEHHHHHH | not soluble
MEKLNRAADDSMINTLSEKSNEFSFYQAVLLLEKHYQFEPNSNFVAVGENKYFHQERIEFSVSPNLCFPKSDMEFIVHMERNGQQYSRVETNFLGLHGSSSPLPVSYTEKLTGREPDDNPVKDFFDFFHNRYTSLLYRVWKKYRYHVQYQSGATDAFSGRMLHLAGLSGVMQDCGVAELDRAKVLSYVNQLSTRTRSPKLISGIVSHYFSLPSVRIEEWVYRRVEIADSQRNKLNRANCILGQSFHLGQSIADLNGKFNLCIDDIDFETFKQFSYEGELHKTLVGLMRFILRDPMSWDLKLTVNLDSIPNNQLGNGEGNNLGQTFWLGNPTDEDVKIRVIGSI | not soluble
SKREMPSMYPQAKGILSALKEKGIEMAIASRSPTSDIANTFLDKLNIKPMFVAKEIYSSWSHKTEHFQKIHTRTGVPFTAMLFFDDEDRNIKSVSKMGVTSILVGDGVTLGAFRQGLTEFTQN | not soluble
